How the values were obtained:
Assay in all cases: SPR
[1] = target: GST-APPBP1-UBA3 (Cys216Ala) (human) (UniProt Q13564)
[2] = target: GST-APPBP1-UBA3Arg190Gln (Cys216Ala) (human) (UniProt Q13564)
[3] = target: GST-APPBP1-UBA3Arg190Ala (Cys216Ala) (human) (UniProt Q13564)

Kd [1] [µM]	Kd [2] [µM]	Kd [3] [µM]	Substance
0.333	3.46	5.5	NEDD8 (from UniProt Q15843 1-76) (natural protein)
> 10	1.02	1.66	NEDD8Ala72Arg (from UniProt Q15843 1-76) (natural protein)
8.75	> 10	> 10	NEDD8Ala72Gln (from UniProt Q15843 1-76) (natural protein)
> 10	0.886	2.97	NEDD8Ala72Lys (from UniProt Q15843 1-76) (natural protein)
